Experiments:
AT1A receptor-eYFP = AT1A receptor-eYFP (UniProt P25095); assay: FRET or BRET; BRET in living HEK293 cells stably expressing AT1A receptor-eYFP and transiently RLuc-CaM, CaM-RLuc or RLuc; 5 µM coelenterazine; ratio 525 nm/460 nm; with or without W7 (20 min) and/or 100 nM Ang II
GST-ATi3(213–242) = assay: pull-down; competition: 2 pmol GST-fusion protein incubated with bovine brain CaM (2 or 10 pmol) for 30 minutes in 20 mM Tris-HCl, 70 mM NaCl, 0.1 mM CaCl2, pH 7.5, then 2 pmol Gβγ for 1 hour; glutathione-sepharose 4B beads; immunoblot with anti-Gβ
GST-ATct(297–359) = assay: as above
GST-ATctN(297–324)F309A = GST-ATctN(297–324)F309A (UniProt P25095); assay: pull-down; 50 pmol GST-fusion protein with purified bovine brain CaM (50 pmol) in 250 µl of 100 mM Tris-HCl pH 7.5 with 0.1 mM CaCl2; 4°C; glutathione-sepharose 4B beads; immunoblot with anti-CaM; for the mutants density of CaM against loaded GST-fusion protein
GST-ATi3N(213–234)W219A = GST-ATi3N(213–234)W219A (UniProt P25095); assay: as above
GST-ATctN(297–324)F313A = GST-ATctN(297–324)F313A (UniProt P25095); assay: as above
GST-ATctN(297–324)F313A, sequence (P25095 297-324 F313A): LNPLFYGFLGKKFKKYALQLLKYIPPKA

GST-ATi3(213–242), sequence (P29754 213-242): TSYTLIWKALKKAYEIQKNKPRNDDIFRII
GST-ATctN(297–324)F309A, sequence (P25095 297-324 F309A): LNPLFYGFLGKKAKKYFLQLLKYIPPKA
GST-ATi3N(213–234)W219A, sequence (P25095 213-234 W219A): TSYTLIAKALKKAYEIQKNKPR
AT1A receptor-eYFP, sequence (P25095 whole entry, the tested form may be a part): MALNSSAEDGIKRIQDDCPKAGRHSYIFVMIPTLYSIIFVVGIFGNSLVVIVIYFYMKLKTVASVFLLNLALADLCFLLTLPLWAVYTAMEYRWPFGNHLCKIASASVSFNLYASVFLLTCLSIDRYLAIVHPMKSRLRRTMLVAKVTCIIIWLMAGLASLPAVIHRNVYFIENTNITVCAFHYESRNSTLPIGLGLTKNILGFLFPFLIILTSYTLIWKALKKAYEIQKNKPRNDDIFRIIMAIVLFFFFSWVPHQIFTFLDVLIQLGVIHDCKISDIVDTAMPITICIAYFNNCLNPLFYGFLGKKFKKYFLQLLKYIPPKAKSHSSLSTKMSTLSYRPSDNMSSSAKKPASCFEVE

BRET ratio with the CaM inhibitor W7, % of untreated (% of non-W7-treated) (AT1A receptor-eYFP)	Gβγ bound to GST-i3 loop with 2 pmol CaM, % of no CaM (GST-ATi3(213–242))	Gβγ bound to GST-i3 loop with 10 pmol CaM, % of no CaM (GST-ATi3(213–242))	Gβγ bound to GST-ct with 2 pmol CaM, % of no CaM (GST-ATct(297–359))	Gβγ bound to GST-ct with 10 pmol CaM, % of no CaM (GST-ATct(297–359))	relative binding efficiency, % of wild type (% of wild type) (GST-ATctN(297–324)F309A)	relative binding efficiency, % of wild type (% of wild type) (GST-ATi3N(213–234)W219A)	relative binding efficiency, % of wild type (% of wild type) (GST-ATctN(297–324)F313A)	Substance
40	–	–	–	–	–	–	–	CaM-RLuc (from UniProt P0DP23 1-149) (natural protein)
–	77%	60%	73%	34%	29	32	22	calmodulin purified from bovine brain (from UniProt P62157 1-149) (natural protein)
